Experimental data from patent US20240010697A1 (CYTIMM THERAPEUTICS, published 2024).
Each block holds one binder with its values, some of them ahead of it.

Assays:
[1] = target: T1, IL-2Rα in a human Fc fusion protein format (ACROBiosystems) (human, UniProt P01589 22-213, limits assumed); test: ELISA; EC50 on IL-2Rα over EC50 on IL-2Rβγ (reference)
T1 construct: Bought reagent; also called CD25; not shown: human Fc (captured by anti-human IgG Fc)
T1 sequence (looked up): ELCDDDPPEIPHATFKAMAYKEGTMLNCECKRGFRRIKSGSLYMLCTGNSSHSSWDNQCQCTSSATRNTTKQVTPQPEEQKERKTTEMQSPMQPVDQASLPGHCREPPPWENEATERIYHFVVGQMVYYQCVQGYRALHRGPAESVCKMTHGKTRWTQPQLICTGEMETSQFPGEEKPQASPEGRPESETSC
Description: (§1) IL-2Rα and IL-2R βγ-human Fc fusion protein constructs (ACRO Biosystems) were each expressed and immobilized by anti-Human IgG Fc (abeam), which were then captured on the surface of wells of a microplate. […] Binding was detected using anti-His or anti-PEG antibody conjugated to horse radish peroxidase (HRP) (Genscript), which was incubated with substrate. The quantification of binding was measured with an absorbance-based microplate reader. Data were analyzed by Graphpas prism9 Software.

[2] = target: T1, IL-2Rα in a human Fc fusion protein …; test: ELISA, receptor-Fc captured by anti-human IgG Fc, anti-His-HRP detection
Description: as §1

[3] = target: T2, IL-2Rβγ-human Fc fusion protein construct (ACRO Biosystems) (human, UniProt P14784 27-239; P31785 23-262, limits assumed); test: as above
T2 construct: not shown: human Fc
T2 sequence (looked up) 1: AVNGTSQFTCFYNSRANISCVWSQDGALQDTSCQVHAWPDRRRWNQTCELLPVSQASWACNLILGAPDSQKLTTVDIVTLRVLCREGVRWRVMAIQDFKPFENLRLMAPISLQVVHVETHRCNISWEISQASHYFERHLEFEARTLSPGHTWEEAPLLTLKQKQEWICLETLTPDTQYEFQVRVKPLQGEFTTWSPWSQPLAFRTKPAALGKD
T2 sequence (looked up) 2: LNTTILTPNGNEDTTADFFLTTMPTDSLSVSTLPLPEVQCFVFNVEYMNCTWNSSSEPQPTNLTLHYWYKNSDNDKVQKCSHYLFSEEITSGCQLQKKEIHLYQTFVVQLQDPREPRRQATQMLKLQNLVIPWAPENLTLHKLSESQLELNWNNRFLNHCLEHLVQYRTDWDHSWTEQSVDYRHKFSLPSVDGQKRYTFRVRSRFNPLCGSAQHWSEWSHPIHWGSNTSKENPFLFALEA
Description: as §1

[4] = target: T3, IL2R αβγ; test: biosensor kinetics, receptor as ligand on the sensor, IL-2 protein as sample, 1:1 Binding model (legend: Octet QKe; table heads give RU)
T3 construct: Cell-free IL-2Rαβγ on a biosensor; not the cell-borne receptors m18 and m19; also called IL-2Rαβγ (ligand on the sensor)

[5] = target: T1, IL-2Rα in a human Fc fusion protein …; test: as above
[6] = target: T2, IL-2Rβγ-human Fc fusion protein …; test: as above
[7] = target: T1, IL-2Rα in a human Fc fusion protein …; test: BLI (Octet QKe), IL-2Rα-Fc captured on AHC sensors, 1:1 fit
Source text: (§2) IL-2Rα or IL-2Rβ in a human Fc fusion protein format (ACROBiosystems) were captured on anti-human IgG Fc capture (AHC) sensors. […] Dissociation was detected following transfer of sensors into wells containing buffer alone. Data were collected and analyzed by the Octet User Software. For analysis of the kinetics constants, a 1:1 curve fitting model was used.

[8] = target: T1, IL-2Rα in a human Fc fusion protein …; test: BLI (Octet QKe), IL-2Rα-Fc captured on AHC sensors, 1:1 fit; row printed a second time
Source text: as §2

[9] = target: T1, IL-2Rα in a human Fc fusion protein …; test: ELISA; EC50 of rhIL2 (reference) over EC50 of ACT5211 on IL-2Rα
Description: as §1

[10] = target: T2, IL-2Rβγ-human Fc fusion protein …; test: ELISA; EC50 of rhIL2 (reference) over EC50 of ACT5211 on IL-2Rβγ
Description: as §1

[11] = target: T1, IL-2Rα in a human Fc fusion protein …; test: ELISA; α/βγ EC50 ratio of rhIL2 (reference) over that of ACT5211
Description: as §1

[12] = target: T1, IL-2Rα in a human Fc fusion protein …; test: ELISA, receptor-Fc captured by anti-human IgG Fc, anti-His or anti-PEG HRP detection
Description: as §1

[13] = target: T2, IL-2Rβγ-human Fc fusion protein …; test: as above
Description: as §1

[14] = target: T4, IL2R β; test: biosensor sensorgrams, receptor on the sensor, IL-2 protein in solution (legend: Octet QKe); axes without units, concentrations not given
T4 construct: also called IL-2Rβ in a human Fc fusion protein format (ACROBiosystems); CD122; not shown: The human IgG Fc carrier and any linker of the ACROBiosystems fusion
T4 chain: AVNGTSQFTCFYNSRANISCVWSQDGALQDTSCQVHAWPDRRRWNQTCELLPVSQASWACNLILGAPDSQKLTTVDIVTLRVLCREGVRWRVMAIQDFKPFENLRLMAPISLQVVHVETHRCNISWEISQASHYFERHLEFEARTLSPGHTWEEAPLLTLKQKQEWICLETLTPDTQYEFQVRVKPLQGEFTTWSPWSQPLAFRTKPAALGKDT
Source text: as §2

[15] = target: T1, IL-2Rα in a human Fc fusion protein …; test: ELISA, receptor-Fc captured by anti-human IgG Fc on the plate, detection with anti-His or anti-PEG antibody-HRP; unit from the axis (Table 4 of the text prints 5.1)
Description: as §1

[16] = target: T2, IL-2Rβγ-human Fc fusion protein …; test: ELISA, receptor-Fc captured by anti-human IgG Fc on the plate, detection with anti-His or anti-PEG antibody-HRP; unit from the axis (Table 4 of the text prints 21.7)
Description: as §1

Ratio (α/βγ) of EC50 [1]: 0.06
EC50 [2]: 2.5 ng/mL
EC50 [3]: 39.6 ng/mL
Kd [4]: 0.0113 nM
koff [4]: 0.000281 s⁻¹
kon [4]: 2.48e+07 M⁻¹ s⁻¹
Kd [5]: 28.4 nM
koff [5]: 0.164 s⁻¹
kon [5]: 5.75e+06 M⁻¹ s⁻¹
Kd [6]: 1.04 nM
koff [6]: 0.000837 s⁻¹
kon [6]: 807000 M⁻¹ s⁻¹
B1: ACT5210, IL-2 mutein Y31C + L18M + L19S (ligand)
chain: APTSSSTKKTQLQLEHLMSDLQMILNGINNCKNPKLTRMLTFKFYMPKKATELKHLQCLEEELKPLEEVLNLAQSKNFHLRPRDLISNINVIVLELKGSETTFMCEYADETATIVEFLNRWITFSQSIISTLT
notes: Not PEGylated; rhIL-2 (C125S) background; also called His-conjugated IL-2 mutein (ACT5210); not shown: His-Tag

Kd [7]: 9.07 nM
koff [7]: 0.0032 s⁻¹
kon [7]: 355000 M⁻¹ s⁻¹
B2: ACT5291, IL-2 mutein Y31C + V69A + Q74P + V91K (PEG20K) (ligand)
chain: APTSSSTKKTQLQLEHLLLDLQMILNGINNCKNPKLTRMLTFKFYMPKKATELKHLQCLEEELKPLEEALNLAPSKNFHLRPRDLISNINKIVLELKGSETTFMCEYADETATIVEFLNRWITFSQSIISTLT
modifications: maleimide-PEG 20K on Cys 31
notes: rhIL-2 (C125S) background; also called Y31C - PEG20 + V69A + Q74P + V91K; not shown: His-Tag

Kd [7]: 61 nM
koff [7]: 0.0232 s⁻¹
kon [7]: 379000 M⁻¹ s⁻¹
Kd [8]: 61 nM
koff [8]: 0.0232 s⁻¹
kon [8]: 379000 M⁻¹ s⁻¹
B3: IL-2 mutein Y31C - PEG20 + N30G (ligand)
chain: APTSSSTKKTQLQLEHLLLDLQMILNGINGCKNPKLTRMLTFKFYMPKKATELKHLQCLEEELKPLEEVLNLAQSKNFHLRPRDLISNINVIVLELKGSETTFMCEYADETATIVEFLNRWITFSQSIISTLT
modifications: maleimide-PEG 20K on Cys 31
notes: not shown: His-Tag

Kd [7]: 37.3 nM
koff [7]: 0.0194 s⁻¹
kon [7]: 520000 M⁻¹ s⁻¹
B4: IL-2 mutein Y31C - PEG20 + N30A (ligand)
chain: APTSSSTKKTQLQLEHLLLDLQMILNGINACKNPKLTRMLTFKFYMPKKATELKHLQCLEEELKPLEEVLNLAQSKNFHLRPRDLISNINVIVLELKGSETTFMCEYADETATIVEFLNRWITFSQSIISTLT
modifications: maleimide-PEG 20K on Cys 31
notes: not shown: His-Tag

Kd [7]: 10.6 nM
koff [7]: 0.0037 s⁻¹
kon [7]: 345000 M⁻¹ s⁻¹
B5: ACT5281, IL-2 mutein Y31C + V69A + Q74P + N88R (PEG20K) (ligand)
chain: APTSSSTKKTQLQLEHLLLDLQMILNGINNCKNPKLTRMLTFKFYMPKKATELKHLQCLEEELKPLEEALNLAPSKNFHLRPRDLISRINVIVLELKGSETTFMCEYADETATIVEFLNRWITFSQSIISTLT
modifications: maleimide-PEG 20K on Cys 31
notes: rhIL-2 (C125S) background; also called Y31C - PEG20 + V69A + Q74P + N88R; not shown: His-Tag

Ratio (α/βγ) of EC50 [1]: 0.3
Kd [7]: 91.5 nM
koff [7]: 0.0388 s⁻¹
kon [7]: 424000 M⁻¹ s⁻¹
EC50 ratio rhIL2/ACT5211 [9]: 6.8
EC50 ratio rhIL2/ACT5211 [10]: 0.1
ratio of the (α/βγ) EC50 ratios, rhIL2/ACT5211 [11]: 67.7
EC50 [12]: 5.1 ng/mL
EC50 [13]: 21.7 ng/mL
Kd [4]: 0.289 nM
koff [4]: 0.000761 s⁻¹
kon [4]: 2.63e+06 M⁻¹ s⁻¹
Kd [5]: 250 nM
koff [5]: 0.139 s⁻¹
kon [5]: 555000 M⁻¹ s⁻¹
Kd [6]: 15.1 nM
koff [6]: 0.00147 s⁻¹
kon [6]: 97200 M⁻¹ s⁻¹
binding result [14]: no binding (tested: not printed)
EC50 [15]: 5.01 ng/mL
EC50 [16]: 2.03 ng/mL
B6: ACT5211, IL-2 mutein Y31C + L18M + L19S (PEG20K) (ligand)
chain: APTSSSTKKTQLQLEHLMSDLQMILNGINNCKNPKLTRMLTFKFYMPKKATELKHLQCLEEELKPLEEVLNLAQSKNFHLRPRDLISNINVIVLELKGSETTFMCEYADETATIVEFLNRWITFSQSIISTLT
modifications: maleimide-PEG 20K on Cys 31
notes: rhIL-2 (C125S) background; also called Y31C - PEG20 + L18M + L19S; Y31C-PEG20+L18ML19S; not shown: His-Tag

Kd [7]: 9.14 nM
koff [7]: 0.0029 s⁻¹
kon [7]: 318000 M⁻¹ s⁻¹
B7: ACT5271, IL-2 mutein Y31C + V69A + Q74P + N30S (PEG20K) (ligand)
chain: APTSSSTKKTQLQLEHLLLDLQMILNGINSCKNPKLTRMLTFKFYMPKKATELKHLQCLEEELKPLEEALNLAPSKNFHLRPRDLISNINVIVLELKGSETTFMCEYADETATIVEFLNRWITFSQSIISTLT
modifications: maleimide-PEG 20K on Cys 31
notes: rhIL-2 (C125S) background; also called Y31C - PEG20 + V69A + Q74P + N30S; not shown: His-Tag

Kd [7]: 7.38 nM
koff [7]: 0.0043 s⁻¹
kon [7]: 581000 M⁻¹ s⁻¹
B8: ACT5261, IL-2 mutein Y31C + L18M + L19S + V69A + Q74P (PEG20K) (ligand)
chain: APTSSSTKKTQLQLEHLMSDLQMILNGINNCKNPKLTRMLTFKFYMPKKATELKHLQCLEEELKPLEEALNLAPSKNFHLRPRDLISNINVIVLELKGSETTFMCEYADETATIVEFLNRWITFSQSIISTLT
modifications: maleimide-PEG 20K on Cys 31
notes: rhIL-2 (C125S) background; also called Y31C - PEG20 + L18M + L19S + V69A + Q74P; not shown: His-Tag

Kd [7]: 47.3 nM
koff [7]: 0.0302 s⁻¹
kon [7]: 639000 M⁻¹ s⁻¹
B9: ACT522S1, IL-2 mutein Y31C + N30S (PEG20K) (ligand)
chain: APTSSSTKKTQLQLEHLLLDLQMILNGINSCKNPKLTRMLTFKFYMPKKATELKHLQCLEEELKPLEEVLNLAQSKNFHLRPRDLISNINVIVLELKGSETTFMCEYADETATIVEFLNRWITFSQSIISTLT
modifications: maleimide-PEG 20K on Cys 31
notes: rhIL-2 (C125S) background; also called Y31C - PEG20 + N30S; not shown: His-Tag

Kd [7]: 8.86 nM
koff [7]: 0.0035 s⁻¹
kon [7]: 393000 M⁻¹ s⁻¹
B10: IL-2 mutein Y31C - PEG20 + V69A + Q74P + I128T (ligand)
chain: APTSSSTKKTQLQLEHLLLDLQMILNGINNCKNPKLTRMLTFKFYMPKKATELKHLQCLEEELKPLEEALNLAPSKNFHLRPRDLISNINVIVLELKGSETTFMCEYADETATIVEFLNRWITFSQSTISTLT
modifications: maleimide-PEG 20K on Cys 31
notes: not shown: His-Tag

Kd [7]: 9.09 nM
koff [7]: 0.00431 s⁻¹
kon [7]: 474000 M⁻¹ s⁻¹
B11: ACT5231, IL-2 mutein Y31C + V69A + Q74P (PEG20K) (ligand)
chain: APTSSSTKKTQLQLEHLLLDLQMILNGINNCKNPKLTRMLTFKFYMPKKATELKHLQCLEEELKPLEEALNLAPSKNFHLRPRDLISNINVIVLELKGSETTFMCEYADETATIVEFLNRWITFSQSIISTLT
modifications: maleimide-PEG 20K on Cys 31
notes: rhIL-2 (C125S) background; also called Y31C - PEG20 + V69A + Q74P; not shown: His-Tag
